Results as given in the supplement of paper PMC10567573.

B1: MLL5 (parent)
chain: TYLCERCQPRNLDKERAVLLQRRK

Variants of: B1
Assay: protein stability index of a GFP-peptide fusion (GPS, HEK-293T) (PSI 1-6); higher = more stable
Conditions: c terminus: a fixed tail appended
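Also: lentivirally expressed fusions sorted by FACS into six bins by GFP to DsRed ratio, PSI derived from sequencing read proportions per bin multiplied by bin number.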

Variant | protein stability index
TYLCERCQPRNLDKERAVLLQRIK [R23I] | 2.57
TYLCERCQPRNLDKERAVLLQRSK [R23S] | 2.35
TYLCERCQPRNLDKERAVLLQRDK [R23D] | 1.76
TYLCERCQPRNLDKERAVLLQRLK [R23L] | 1.47
TYLCERCQPRNLDKERAVLLQRWK [R23W] | 2.39
TYLCERCQPRNLDKERAVLLQRMK [R23M] | 2.16
TYLCERCQPRNLDKERAVLLQRGK [R23G] | 2.1
TYLCERCQPRNLDKERAVLLQRPK [R23P] | 2.5
TYLCERCQPRNLDKERAVLLQRKK [R23K] | 2.91
TYLCERCQPRNLDKERAVLLQRHK [R23H] | 2.05
TYLCERCQPRNLDKERAVLLQRCK [R23C] | 2.31
TYLCERCQPRNLDKERAVLLQRYK [R23Y] | 1.48
TYLCERCQPRNLDKERAVLLQRFK [R23F] | 2.03
TYLCERCQPRNLDKERAVLLQREK [R23E] | 1.72
TYLCERCQPRNLDKERAVLLQRNK [R23N] | 2.36
TYLCERCQPRNLDKERAVLLQRRG [K24G] | 1.69
TYLCERCQPRNLDKERAVLLQRRI [K24I] | 1.6
TYLCERCQPRNLDKERAVLLQRRQ [K24Q] | 2.65
TYLCERCQPRNLDKERAVLLQRRP [K24P] | 2.38
TYLCERCQPRNLDKERAVLLQRRT [K24T] | 2.28

Variant | protein stability index
TYLCERCQPRNLDKERAVLLQRRA [K24A] | 1.73
TYLCERCQPRNLDKERAVLLQRRE [K24E] | 2.25
TYLCERCQPRNLDKERAVLLQRRH [K24H] | 2.74
TYLCERCQPRNLDKERAVLLQRRM [K24M] | 1.81
TYLCERCQPRNLDKERAVLLQRRD [K24D] | 2.36
TYLCERCQPRNLDKERAVLLQRRW [K24W] | 3.28
TYLCERCQPRNLDKERAVLLQRRY [K24Y] | 1.91
TYLCERCQPRNLDKERAVLLQRRL [K24L] | 2.17
TYLCERCQPRNLDKERAVLLVRRK [Q21V] | 1.84
TYLCERCQPRNLDKERAVLLTRRK [Q21T] | 1.81
TYLCERCQPRNLDKERAVLLMRRK [Q21M] | 2.46
TYLCERCQPRNLDKERAVLLNRRK [Q21N] | 2.42
TYLCERCQPRNLDKERAVLLSRRK [Q21S] | 1.99
TYLCERCQPRNLDKERAVLLRRRK [Q21R] | 2.51
TYLCERCQPRNLDKERAVLLIRRK [Q21I] | 1.73
TYLCERCQPRNLDKERAVLLYRRK [Q21Y] | 2.04
TYLCERCQPRNLDKERAVLLGRRK [Q21G] | 2.91
TYLCERCQPRNLDKERAVLLDRRK [Q21D] | 2.78
TYLCERCQPRNLDKERAVLLERRK [Q21E] | 2.09
TYLCERCQPRNLDKERAVLLHRRK [Q21H] | 3.22

Variant | protein stability index
TYLCERCQPRNLDKERAVLLKRRK [Q21K] | 2.64
TYLCERCQPRNLDKERAVLLQIRK [R22I] | 2.44
TYLCERCQPRNLDKERAVLLQSRK [R22S] | 2.34
TYLCERCQPRNLDKERAVLLQVRK [R22V] | 1.98
TYLCERCQPRNLDKERAVLLQYRK [R22Y] | 1.97
TYLCERCQPRNLDKERAVLLQWRK [R22W] | 2.14
TYLCERCQPRNLDKERAVLLQARK [R22A] | 2
TYLCERCQPRNLDKERAVLLQHRK [R22H] | 2.28
TYLCERCQPRNLDKERAVLLQMRK [R22M] | 2.18
TYLCERCQPRNLDKERAVLLQCRK [R22C] | 2.08
TYLCERCQPRNLDKERAVLLQDRK [R22D] | 2.2
TYLCERCQPRNLDKERAVLLQERK [R22E] | 1.76
TYLCERCQPRNLDKERAVLLQKRK [R22K] | 2.03
TYLCERCQPRNLDKERAVLLQPRK [R22P] | 2.9
TYLCERCQPRNLDKERAVLLQNRK [R22N] | 1.99
TYLCERCQPRNLDKERAVLLQGRK [R22G] | 1.98
TYLCERCQPRNLDKERAVLLQTRK [R22T] | 2.1
TYLCERCQPRNLDKERAVLLQLRK [R22L] | 1.89
